Measurements published in US20210085756A1, “SUPERACTIVE MUTANT THYMIDINE KINASE FOR USE IN CANCER THERAPY” (MEDIZINISCHE UNIVERSITÄT WIEN, priority 2017, published 2021).
Substitutions are numbered along the chain they refer to. Numbers in names are those of the source. Where two headings read alike, the source gives them in different places.

Experiments:
[1] = 400 mg/m2/day; cited from earlier work
[2] = system: HeLa cervix carcinoma cells; test: growth curves of superTk1 stable transfectant HeLa clone 117 with dTh, 5-FU or AraC +/- doxycyclin; conditions: for inhibitory effect at concentrations lower than 5 μM: 2.5 and 1 μM, with dTh; for lowest concentration still able to cause cell growth arrest when combined with dTh: HeLa clone 117 superTk1, 0.1 mM dTh; for relative cell proliferation on day 4 compared to day 1: control groups without doxycycline; for relative cell proliferation on day 4 compared to day 1 / cell number of doxycyclin induced cells versus control without doxycyclin: 5 μM + 0.1 mM dTh; for cell number of doxycyclin induced cells versus control without doxycyclin: day 4
Method: Each sample was measured twice and setup as triplicates.
Each sample was set up as triplets and measured twice.
For this task this gene was integrated in pUHDhygr and stable transfected into HeLa cervix carcinoma cells. […] These transfected HeLa cells were grown under permanent hygromycin and puromycin selection pressure for 4 to 7 days, starting with 50.000 cells/well (12.500 cells/ml). In order to establish a perfect growth curve cell counts on a daily basis with a Casy cell counting system were mandatory.

[3] = system: rat hepatoma cells; conditions: concomitant 1 mM dTh; cited from earlier work
[4] = system: L1210 leukemia cells; conditions: after 0.1 mM dTh; cited from earlier work
[5] = system: PC-3 cells; test: MTT cell viability - cytotoxicity assay of stable pUHDsuperTK1 transfectants of PC-3; type: cell-based, Human (homo sapiens)
From the text: The MTT assay is a colorimetric assay for assessing cell metabolic activity; see J Immunol Methods. […] 16; 65(1-2):55-63; Sigma Aldrich. […] MTT Cell Viability Applications. […] Its value was set at 100%.

[6] = system: patients with relapsed leukemia or lymphoma; conditions: cited from earlier work
[7] = system: normal and neoplastic cells; test: cytotoxic impact of prolonged dTh in cell culture; type: cell-based; conditions: administered for prolonged times
[8] = dTh dose to mean plasma or serum level correlation; type: in vivo, human
From the text: It can be expected that a therapy regimen employing these reduced concentration levels will be well tolerated by all patients, but still functioning.
Thus, there is normally a linear correlation between the dose/amount of dTh administered and the mean plasma level or mean serum level.

[9] = system: PC-3 prostate carcinoma cells; test: growth experiment, stable pUHDsuperTk1/wtTk1 transfectants of PC-3 treated with dTh +/- doxycyclin; type: cell-based, Human (homo sapiens)
Method: (§1) Cell batches that expressed superTk1 received 5 μg/ml doxycyclin replenished on a daily basis. The control samples received all other constituents (dTh, antibiotics) but no doxycyclin. In addition, the cell culture medium was renewed completely every 72 hrs in all wells in order to avoid unwanted starvation or deprivation effects.
as §1, with “wtTk1” for “superTk1”, “after” for “every”

[10] = system: PC-3 prostate cancer cells; test: FACS DNA profile (propidium iodide) cell cycle distribution of PC-3 superTK1 clone 2; type: cell-based, Human (homo sapiens); conditions: 0.5 mM dTh + 5 μg/ml doxycycline for 3 days
[11] = system: human cytosolic Tk1; test: thymidine kinase specific enzyme activity assay (3H-dTh, DE81 filters); type: biochemical
Method: (§2) For the determination of a specific activity a quantification of the protein solution was done first, according the method of Bradford. The dye stock solution (Biorad) containing methanol and acetic acid was diluted 1:4 with ddH2O. An aliquot of the protein solution was then filled up to 1 ml with the diluted Bradford solution. (Usually 5l of protein solution are diluted in […] Bradford solution. The protein concentration is calculated by multiplying the absorbance at =595 nm with 17 and dividing this by 5, resulting in the concentration in μg/μl.) Depending on the concentration of the kinases 5-20 μl of the sample solution were used.
(§3) The following components were mixed for the enzyme assay:
(§4) 10 fold mix: • 0.5 M Tris-HCl, pH 7.5 • 0.1 M DTT • 25 mM ATP • 25 mM MgCl2
(§5) Set up for the activity test: 5.0 μl 10-fold mix • 2.5 μl BSA (60 mg/ml) • 1.0 μl Chaps (25 mM) • 1.0 μl NaF (0.15 M) • 1.0 μl ^3H-dTh or 3H-dCyd (500 μM, 2 Ci/mmol) • 5.0-20 μl of the protein solution • Filled up with ddH2O to 50 μl
(§6) The set-up was incubated at 37° C. At distinct times 10 μl aliquots were removed from the reaction mix and pipetted onto small pieces of DE81-filters. After removal of every aliquot, the filter papers were washed in a big volume of ammonium formiat (5 mM for TK assay), transferred to water and rinsed, and finally dried after shortly immersing them in ethanol. Then, after the dried filters were transferred into the scintillation tubes, the bound radioactive nucleotides were eluted by addition of 500 μl elution buffer (0.1 M HCl, 0.2 M KCl). 2.5 ml of scintillation solution were added before measuring the radioactivity. A standard was created in order to convert the cpm-values into pmol: 5 μl from some of the reactions were removed and pipetted on DE81-filters, which were not washed, but directly transferred to the scintillation tubes, treated like described above, and measured. 5 μl of the standard contained 50 pMol of the substrate or the product. From the cpm-values of these samples one got the converting factor UF (is equal to the specific activity of the used substrate): UF=cpm standard/50 pMol
(§7) For the calculation of the whole enzymatic activity of one fraction (U) the following formula was used:
(§8) 10 μl were pipetted at each time point onto the filter, and 20 μl of the protein solution was initially used. cpm=(cpmt2−cpm t1)/t2−t1 (cpm/min); t1=start of the reaction; t2=end of the reaction, e.g. 5 min; Vol=total volume of the fraction (μl); UF is the specific activity (see above) (cpm/pMol); U is the whole activity of the enzyme per fraction (pMol/min×μl=Mol/min×ml).

[12] = biological target: T1, human cytosolic Tk1 (Homo sapiens, UniProt P04183, G90A/K211R); test: as above; type: biochemical
T1 construct: made in house
T1 sequence (P04183 with tags, fused parts or gaps G90A/K211R): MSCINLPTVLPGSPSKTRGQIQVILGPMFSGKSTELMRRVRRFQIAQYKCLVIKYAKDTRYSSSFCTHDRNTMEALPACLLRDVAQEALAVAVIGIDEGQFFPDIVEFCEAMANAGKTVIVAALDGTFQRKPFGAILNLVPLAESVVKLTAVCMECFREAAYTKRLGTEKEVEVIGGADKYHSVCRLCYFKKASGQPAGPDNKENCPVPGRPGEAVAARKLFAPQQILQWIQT
Method: as §2, §3, §4, §5, §6, §7, §8

[13] = infusion, up to 240 g/sq m/day for 14 to 29 days
[14] = doxycycline (superTK1 induced), no dTh added
[15] = 0.5 mM dTh daily + 5 μg/ml doxycyclin, superTk1 clone 2 (7 days) or wtTk1 clone 7 (5 days)

O=c1[nH]cc(F)c(=O)[nH]1 [5-FU, 5-fluorouracil]
cmax in the serum [1]: 55.44 µg/mL
inhibitory effect at concentrations lower than 5 μM [2]: too low to exert any inhibitory effects
lowest concentration still able to cause cell growth arrest when combined with dTh [2]: 5 µM
relative cell proliferation on day 4 compared to day 1 [2]: 3.3 fold
cell number of doxycyclin induced cells versus control without doxycyclin [2]: reduced almost to half

Nc1ccn([C@@H]2O[C@H](CO)[C@@H](O)[C@@H]2O)c(=O)n1 [AraC, cytosine arabinoside]
increase of incorporation into the DNA [3]: over 2 fold
increase of incorporation into DNA [4]: 5 fold
inhibitory effect at concentrations lower than 5 μM [2]: too low to exert any inhibitory effects
lowest concentration still able to cause cell growth arrest when combined with dTh [2]: 5 µM
relative cell proliferation on day 4 compared to day 1 [2]: 2.4 fold
cell number of doxycyclin induced cells versus control without doxycyclin [2]: reduced almost to half

Cc1cn([C@H]2C[C@H](O)[C@@H](CO)O2)c(=O)[nH]c1=O [dTh, deoxythymidine]
ability to convert the MTT dye, percentage of control absorbance ([5]; 0.5 mM dTh daily for 3 days, no doxycycline): 55%
therapy outcome ([6]; acute leukemia previously refractory to treatment): complete remission in some patients
mean plasma dTh levels [6, 13]: 5.5 mM
side effects [6, 13]: nausea, vomiting, hepatotoxicity, electrolyte imbalances, mild central nervous system toxicity and bone marrow aplasia
dTh levels exerting cytotoxic impacts [7]: exceeding 4 mM
mean plasma level or mean serum level ([8]; 5 g dTh/sqm/day): about 0.1 mM
mean plasma level or mean serum level ([8]; 25 g dTh/sqm/day): about 0.5 mM

C[C@H]1c2cccc(O)c2C(=O)C2=C(O)[C@]3(O)C(=O)C(C(N)=O)=C(O)[C@@H](N(C)C)[C@@H]3[C@@H](O)[C@@H]21 [doxycycline, reference compound]
cell viability (MTT) compared to control [5, 14]: 30%

B1: human TK1 mut G90A: mutant human thymidine kinase 1 with G90A, aa sequence SEQ ID No. 12, here called superTk1 (protein)
chain: T1 sequence (P04183 with tags, fused parts or gaps G90A/K211R)
modifications: Human TK1 mutG90A
relative cell proliferation (in words) [9, 15]: do not proliferate and even decrease in cell number from day 4
relative cell proliferation (in words) ([9]; clone 13, 0.1 mM dTh daily + doxycyclin, four days): did not allow the cells to proliferate at all
cells in G2/M phase [10]: No cells were detectable
cells in S phase [10]: Over 75%
portion of cells in G1 phase [10]: approx. one fourth
cell viability (MTT) compared to control ([5]; 0.5 mM dTh + doxycycline (superTK1 induced)): approx. 20%
cell viability (MTT) compared to control [5, 14]: approx. 30%
specific activity compared to the wild type enzyme ([11]; listed as A90G): more than 9 fold
specific activity compared to the wild type enzyme ([11]; listed as G90A): about 9 fold
specific activity compared to the wild type enzyme ([11]; listed as superTk1): more than 9 fold
activity compared to the wt Tk1 ([12]; after 5 min incubation time): 9 fold
activity compared to the wt Tk1 ([12]; after 10 min incubation time): 18.2 fold
measured specific Tk1 enzyme activity ([12]; data retrieved from a different experiment): 375 pmol/mg/min
growth of tumor cell cultures (in words) ([2]; 0.1 mM dTh and doxycyclin induction): clear growth repression

B2: human TK1 mut V84DG90A: double mutant human thymidine kinase 1, aa sequence SEQ ID No. 16; domain aa 71-95 NTMEALPACLLRDDAQEALAVAVIG (protein)
chain: T1 sequence (P04183 with tags, fused parts or gaps G90A/K211R) with V84D
modifications: Human TK1 mutV84DG90A
measured specific Tk1 enzyme activity [11]: 393 pmol/mg/min
specific activity compared to the wild type enzyme [11]: at least 9 fold

B3: human TK1 mut L8081F: double mutant named "feeble" Tk1 with decreased specific activity, aa sequence SEQ ID No. 26 (protein)
chain: T1 sequence (P04183 with tags, fused parts or gaps G90A/K211R) with L80F, L81F, A90G
modifications: Human TK1 mutL8081F
measured specific Tk1 enzyme activity [11]: 1.4 pmol/mg/min
change of specific activity (in words) ([11]; compared to wild type): strong decrease of specific activity

B4: wt: wild-type human cytosolic thymidine kinase 1, aa sequence SEQ ID NO. 28 (protein, listed as Homo sapiens)
chain: MSCINLPTVLPGSPSKTRGQIQVILGPMFSGKSTELMRRVRRFQIAQYKCLVIKYAKDTRYSSSFCTHDRNTMEALPACLLRDVAQEALGVAVIGIDEGQFFPDIVEFCEAMANAGKTVIVAALDGTFQRKPFGAILNLVPLAESVVKLTAVCMECFREAAYTKRLGTEKEVEVIGGADKYHSVCRLCYFKKASGQPAGPDNKENCPVPGKPGEAVAARKLFAPQQILQCSPAN
modifications: Human TK1 wt NM_003258
relative cell proliferation (in words) [9, 15]: proliferate nicely, almost as well as the control cells
measured specific Tk1 enzyme activity [11]: 37 pmol/mg/min
